B1: RAC2-T001 TCR (TCR)
TCR alpha: GENVEQHPSTLSVQEGDSAVIKCTYSDSASNYFPWYKQELGKGPQLIIDIRSNVGEKKDQRIAVTLNKTAKHFSLHITETQPEDSAVYFCAASMGNAGNMLTFGGGTRLMVKPH
TCR beta: EPEVTQTPSHQVTQMGQEVILRCVPISNHLYFYWYRQILGQKVEFLVSFYNNEISEKSEIFDDQFSVERPDGSNFTLKIRSTKLEDSAMYFCASSETSGASYEQYFGPGTRLTVT
B2: RAC2-T002 TCR (TCR)
TCR alpha: AQSVTQLGSHVSVSEGALVLLRCNYSSSVPPYLFWYVQYPNQGLQLLLKYTTGATLVKGINGFEAEFKKSETSFHLTKPSAHMSDAAEYFCAVGANNLFFGTGTRLTVIPY
TCR beta: EPEVTQTPSHQVTQMGQEVILRCVPISNHLYFYWYRQILGQKVEFLVSFYNNEISEKSEIFDDQFSVERPDGSNFTLKIRSTKLEDSAMYFCASSEWRGSSYNEQFFGPGTRLTVL

Target: RAC2^P29L peptide … presented by HLA-A2 (peptide-loaded T2 cells) (human)
Assay: cell-based or functional assay

Binder	IFNγ production by TCR-transduced T cells (relative)
B1	100%
B2	100%
